Source: patent US20150368668A1 (RUTGERS THE STATE UNIVERSITY OF NEW JERSEY, published 2015)

B1: eE2(ΔHVR1) (residues 413-656, genotype J6) (other)
chain: LVNTNGSWHINRTALNCNDSLHTGFIASLFYTHSFNSSGCPERMSACRSIEAFRVGWGALQYEDNVTNPEDMRPYCWHYPPRQCGVVSAKTVCGPVYCFTPSPVVVGTTDRLGAPTYTWGENETDVFLLNSTRPPLGSWFGCTWMNSSGYTKTCGAPPCRTRADFNASTDLLCPTDCFRKHPDTTYLKCGSGPWLTPRCLIDYPYRLWHYPCTVNYTIFKIRMYVGGVEHRLTAACNFTRGDRC
modifications: glycosylated (SAXS sample)
notes: also called eE2(DHVR1); eE2 (DHVR1)
B2: full-length E2 ectodomain eE2 (residues 384-656, genotype J6), produced with a C-terminal protein-A tag and released by PreScission Protease (other)
chain: RTHTVGGSAAQTTGRLTSLFDMGPRQKIQLVNTNGSWHINRTALNCNDSLHTGFIASLFYTHSFNSSGCPERMSACRSIEAFRVGWGALQYEDNVTNPEDMRPYCWHYPPRQCGVVSAKTVCGPVYCFTPSPVVVGTTDRLGAPTYTWGENETDVFLLNSTRPPLGSWFGCTWMNSSGYTKTCGAPPCRTRADFNASTDLLCPTDCFRKHPDTTYLKCGSGPWLTPRCLIDYPYRLWHYPCTVNYTIFKIRMYVGGVEHRLTAACNFTRGDRC
modifications: N-linked glycans from GnTI- HEK293T cells; whether deglycosylated in the ELISAs is not stated
notes: Monomeric; also called eE2 (384-656)

Legend:
[1] = molecular target: human CD81, cellular receptor on the cells infected with HCVcc (human) (UniProt P60033); experiment: cell-based or functional assay
human CD81, cellular receptor on the cells infected with HCVcc (human), sequence (P60033 whole entry, the tested form may be a part): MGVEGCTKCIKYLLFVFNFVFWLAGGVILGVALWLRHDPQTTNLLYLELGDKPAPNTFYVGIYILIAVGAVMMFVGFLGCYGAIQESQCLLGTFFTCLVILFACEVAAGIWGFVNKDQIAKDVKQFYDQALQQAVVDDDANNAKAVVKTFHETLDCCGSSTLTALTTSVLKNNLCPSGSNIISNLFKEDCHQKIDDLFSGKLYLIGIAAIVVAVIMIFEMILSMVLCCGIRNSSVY

[2] = molecular target: T1, Human CD81-LEL (residues 112-202), protein-A tag cleaved by PreScission Protease (human, UniProt P60033 112-202); experiment: SAXS envelope of the complex
T1 construct: range 112-202
T1 sequence: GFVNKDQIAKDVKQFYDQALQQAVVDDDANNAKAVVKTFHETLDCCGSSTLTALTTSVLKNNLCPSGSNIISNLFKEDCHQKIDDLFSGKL

[3] = molecular target: T1, Human CD81-LEL (residues 112-202), …; experiment: ELISA, CD81-LEL coated, detection with 2A12 and anti-mouse-HRP

Molecule	50% blocking efficiency, HCVcc focus forming units [1] [µg/mL]	further results
purified eE2 (J6 genotype 2a E2 ectodomain aa 384-664, released from the Fc tag by thrombin) (from UniProt P26660 385-664)	25 to 150	–
purified eE2-C656S (J6 E2 ectodomain aa 384-664 with C656S, released from the Fc tag by thrombin) (from UniProt P26660 385-664)	25 to 150	–
B1	–	binding result [2]: binds
B2	–	binding result [3]: binds
